Results published in patent publication US9815881B2, “Method of inducing labor or treating pre-eclampsia by administering relaxin analogs” (The Board of Trustees of the Leland Stanford Junior …, priority 2009, dated 2017).
Where no end group is shown, it is not given here.

T1: LGR7 (Homo sapiens, UniProt Q9HBX9)
T1 construct: HEK293T cells stably expressing recombinant LGR7 or LGR8; expressed in transfected cells
T1 sequence (Q9HBX9 1-757): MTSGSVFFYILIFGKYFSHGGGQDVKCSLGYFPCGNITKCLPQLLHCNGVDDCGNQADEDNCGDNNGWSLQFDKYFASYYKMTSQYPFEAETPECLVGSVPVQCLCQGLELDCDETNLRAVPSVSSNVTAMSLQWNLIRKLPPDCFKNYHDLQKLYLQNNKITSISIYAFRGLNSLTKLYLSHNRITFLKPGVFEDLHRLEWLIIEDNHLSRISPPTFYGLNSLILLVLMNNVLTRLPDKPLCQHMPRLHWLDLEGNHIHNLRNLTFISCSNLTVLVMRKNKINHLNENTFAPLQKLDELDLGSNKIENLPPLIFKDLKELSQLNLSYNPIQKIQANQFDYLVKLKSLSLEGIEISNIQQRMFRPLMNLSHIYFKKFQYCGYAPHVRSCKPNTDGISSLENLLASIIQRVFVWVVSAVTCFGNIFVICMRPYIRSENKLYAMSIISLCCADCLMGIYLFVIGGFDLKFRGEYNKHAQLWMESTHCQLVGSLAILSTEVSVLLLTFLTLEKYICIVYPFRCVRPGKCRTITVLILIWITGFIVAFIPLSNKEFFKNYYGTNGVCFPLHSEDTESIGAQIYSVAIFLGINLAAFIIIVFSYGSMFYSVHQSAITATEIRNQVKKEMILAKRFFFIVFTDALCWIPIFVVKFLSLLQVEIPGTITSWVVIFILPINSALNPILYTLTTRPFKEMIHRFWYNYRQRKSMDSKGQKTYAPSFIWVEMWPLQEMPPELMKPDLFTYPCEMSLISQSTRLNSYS


What was measured:
[1] = target: T1, LGR7; experiment: Receptor-activation analysis: cAMP production in LGR7-expressing HEK293T cells; assay type: cell-based; conditions: for pEC50 on the activation of LGR7: HEK293T cells stably expressing LGR7, mean ± S.E., ND = pEC50 not measurable
Protocol: (§1) The bioactivity of relaxin family peptides was determined based on the stimulation of adenylate cyclase activity in HEK293T cells stably expressing recombinant LGR7 or LGR8. Stable LGR7- or LGR8-expressing cells were maintained in Dulbecco's modified Eagle's medium/F-12 media supplemented with […] Zeocin (Invitrogen). After seeding at a density of 2×10^5 cells per well in 500 μl of Dulbecco's modified Eagle's medium/F-12 medium containing 0.1% bovine serum albumin in 48-well plates, cells were preincubated at 37° C. for 30 min in the presence of 0.25 mM 3-isobutyl-1-methylxanthine before treatment with increasing concentrations of peptides (from 0 to 100 nM) in quadruplicate. Twelve hours after treatment, the culture was reacted with acetic anhydride/triethylamine, and total cAMP content in cell lysates was measured using a specific cAMP radioimmunoassay. A nontagged human RLN2 peptide was used as a standard to verify the bioactivity of tagged RLN2 peptides.
(§2) Receptor-activation and receptor binding activity curves generated in nonlinear regression analyses (Prism; GraphPad Software, San Diego, Calif.) were evaluated relative to the samples without hormone treatment. In all cases data are reported as the mean±S.E. of assays in triplicate or quadruplicate. Statistically significant responses (p<0.05) were determined for each stimulated response to the average nonspecific response from control samples using analysis of variance and Student's t test.

[2] = target: T2, LGR8 (Homo sapiens, UniProt Q8WXD0); experiment: Receptor-activation analysis: cAMP production in LGR8-expressing HEK293T cells; assay type: cell-based; conditions: for LGR8-activation activity (result in words): LGR8-expressing HEK293T cells
T2 construct: HEK293T cells stably expressing recombinant LGR7 or LGR8; expressed in transfected cells
T2 sequence (Q8WXD0 whole entry): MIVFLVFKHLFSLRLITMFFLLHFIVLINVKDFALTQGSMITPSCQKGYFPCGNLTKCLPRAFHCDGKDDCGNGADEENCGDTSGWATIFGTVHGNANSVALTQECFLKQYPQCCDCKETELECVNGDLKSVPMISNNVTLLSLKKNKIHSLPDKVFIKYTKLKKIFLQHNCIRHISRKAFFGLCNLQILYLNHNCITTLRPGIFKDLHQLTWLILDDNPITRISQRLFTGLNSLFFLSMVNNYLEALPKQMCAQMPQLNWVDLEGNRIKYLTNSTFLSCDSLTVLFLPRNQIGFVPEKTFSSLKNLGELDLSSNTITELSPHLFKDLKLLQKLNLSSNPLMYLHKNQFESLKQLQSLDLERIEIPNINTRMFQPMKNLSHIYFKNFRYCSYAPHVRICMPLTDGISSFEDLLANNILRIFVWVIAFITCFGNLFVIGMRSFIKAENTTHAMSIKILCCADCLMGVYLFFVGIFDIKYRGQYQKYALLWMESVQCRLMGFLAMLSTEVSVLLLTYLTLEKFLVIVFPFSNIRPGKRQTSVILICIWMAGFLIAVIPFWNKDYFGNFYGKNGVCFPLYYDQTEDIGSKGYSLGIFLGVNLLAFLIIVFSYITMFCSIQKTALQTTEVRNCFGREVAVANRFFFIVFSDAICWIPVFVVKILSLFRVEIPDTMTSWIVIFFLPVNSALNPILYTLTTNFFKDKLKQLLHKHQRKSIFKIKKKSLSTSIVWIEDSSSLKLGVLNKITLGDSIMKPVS
Protocol: as §1, §2

Molecule	pEC50 on the activation of LGR7 [1]	LGR8-activation activity (result in words) [2]	other results
RLN2 C-18: tagged RLN2 from construct with B and A chains linked by a truncated C-domain of 18 amino acids (chain 1 SWMEEVIKLCGRELVRAQIAICGMSTWSHHHHHH; chain 2 QLYSALANKCCHVGCTKRSLARFC; not fully specified; ends and bridges not checked)	8.74 ± 0.09		
RLN2 C-28: tagged RLN2 from construct with B and A chains linked by a truncated C-domain of 28 amino acids (chain 1 SWMEEVIKLCGRELVRAQIAICGMSTWSHHHHHH; chain 2 QLYSALANKCCHVGCTKRSLARFC; not fully specified; ends and bridges not checked)	8.66 ± 0.07		
RLN2 C-104: tagged RLN2 derived from the construct containing a 104-amino acid C domain sequence (chain 1 SWMEEVIKLCGRELVRAQIAICGMSTWSHHHHHH; chain 2 QLYSALANKCCHVGCTKRSLARFC; not fully specified; ends and bridges not checked)	8.74 ± 0.05		
RLN2 K^A17D: RLN2 mutant with aspartic acid at the LysA17 position (chain 1 SWMEEVIKLCGRELVRAQIAICGMSTWSHHHHHH; chain 2 QLYSALANKCCHVGCTDRSLARFC; not fully specified; ends and bridges not checked)		did not exhibit an enhanced LGR8-activation activity	
RLN2 K^A17G: RLN2 mutant with glycine at the LysA17 position (chain 1 SWMEEVIKLCGRELVRAQIAICGMSTWSHHHHHH; chain 2 QLYSALANKCCHVGCTGRSLARFC; not fully specified; ends and bridges not checked)		did not exhibit an enhanced LGR8-activation activity	
RLN2 K^A17Q: RLN2 mutant with glutamine at the LysA17 position (chain 1 SWMEEVIKLCGRELVRAQIAICGMSTWSHHHHHH; chain 2 QLYSALANKCCHVGCTQRSLARFC; not fully specified; ends and bridges not checked)		did not exhibit an enhanced LGR8-activation activity	
RLN2^A19-20: RLN2 mutant with alanine substitution at the A19-20 positions of the A chain (chain 1 SWMEEVIKLCGRELVRAQIAICGMSTWSHHHHHH; chain 2 QLYSALANKCCHVGCTKRAAARFC; not fully specified; ends and bridges not checked)			LGR7-activation activity (result in words) ([1]; LGR7-expressing HEK293T cells): decreased LGR7-activation activities
WT RLN2 (His1): recombinant wild type RLN2 with N-terminal Myc tag and His6 tag at the N or C terminus of the B chain (position 1) (chain 1 SWMEEVIKLCGRELVRAQIAICGMSTWS; chain 2 QLYSALANKCCHVGCTKRSLARFC; not fully specified; ends and bridges not checked; also: N-terminal Myc tag)	8.66 ± 0.09		
WT INSL3: recombinant wild type human insulin-like 3 (protein, left off: small tags and cut ends) chain 1: PTPEMREKLCGHHFVRALVRVCGGPRWSTEAHHHHHH chain 2: AAATNPARYCCLSGCTQQDLLTLCPY		selectively activated	pEC50 on the activation of LGR8 ([2]; HEK293T cells stably expressing LGR8, mean ± S.E., ND = pEC50 not measurable): 9.03 ± 0.05
